Experimental data from patent US20050048634.

Molecular target: oligo-nucleosomes purified from HeLa cells or chicken blood cells

B1: hDOT1L(1-416) Δ(376-390) (protein)
chain: MGEKLELRLKSPVGAEPAVYPWPLPVYDKHHDAAHEIIETIRWVCEEIPDLKLAMENYVLIDYDTKSFESMQRLCDKYNRAIDSIHQLWKGTTQPMKLNTRPSTGLLRHILQQVYNHSVTDPEKLNNYEPFSPEVYGETSFDLVAQMIDEIKMTDDDLFVDLGSGVGQVVLQVAAATNCKHHYGVEKADIPAKYAETMDREFRKWMKWYGKKHAEYTLERGDFLSEEWRERIANTSVIFVNNFAFGPEVDHQLKERFANMKEGGRIVSSKPFAPLNFRINSRNLSDIGTIMRVVELSPLKGSVSWTGKPVSYYLHTIDRTILENYFSSLKNPKLREEQEAARRRQQRESKSNAATPTKGPEGKVAGPADAPMDSGPSKARKKKLNKKGRKMAGRKRGRPKK
  HMTase activity in the presence of increasing concentrations (1.5, 15, 150 uM) of the competitor peptide C-RS10 (SEQ ID NO:20): effectively competed with increasing concentrations of the peptide

B2: hDOT1L(1-416) (protein)
chain: MGEKLELRLKSPVGAEPAVYPWPLPVYDKHHDAAHEIIETIRWVCEEIPDLKLAMENYVLIDYDTKSFESMQRLCDKYNRAIDSIHQLWKGTTQPMKLNTRPSTGLLRHILQQVYNHSVTDPEKLNNYEPFSPEVYGETSFDLVAQMIDEIKMTDDDLFVDLGSGVGQVVLQVAAATNCKHHYGVEKADIPAKYAETMDREFRKWMKWYGKKHAEYTLERGDFLSEEWRERIANTSVIFVNNFAFGPEVDHQLKERFANMKEGGRIVSSKPFAPLNFRINSRNLSDIGTIMRVVELSPLKGSVSWTGKPVSYYLHTIDRTILENYFSSLKNPKLREEQEAARRRQQRESKSNAATPTKGPEGKVAGPADAPMDSGAEEEKAGAATVKKPSPSKARKKKLNKKGRKMAGRKRGRPKK
  HMTase activity in the presence of increasing concentrations (1.5, 15, 150 uM) of the competitor peptide C-RS10 (SEQ ID NO:20): effectively competed with increasing concentrations of the peptide
